This is an account of results in US20160311919A1 (CELLDEX THERAPEUTICS, published 2016).

In assay [1] the target is T1, GPNMB (CG56972), native full-length protein on the cell surface or in cell lysates (human, UniProt Q14956 23-492).
T1 sequence: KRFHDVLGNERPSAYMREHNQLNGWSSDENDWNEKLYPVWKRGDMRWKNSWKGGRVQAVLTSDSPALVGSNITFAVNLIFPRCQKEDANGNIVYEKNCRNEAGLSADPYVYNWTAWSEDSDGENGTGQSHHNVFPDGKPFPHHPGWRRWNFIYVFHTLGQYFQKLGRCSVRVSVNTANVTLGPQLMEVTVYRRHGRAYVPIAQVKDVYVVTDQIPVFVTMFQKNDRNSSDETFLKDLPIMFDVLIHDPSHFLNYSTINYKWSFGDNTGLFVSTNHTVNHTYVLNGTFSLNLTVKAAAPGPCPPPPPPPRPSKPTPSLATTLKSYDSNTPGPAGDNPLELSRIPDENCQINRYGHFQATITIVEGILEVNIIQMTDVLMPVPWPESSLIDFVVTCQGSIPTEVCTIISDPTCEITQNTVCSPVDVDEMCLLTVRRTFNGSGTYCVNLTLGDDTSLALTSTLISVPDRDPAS
The experiment in a line: cell-based or functional assay.

The target in assay [2] is T1, GPNMB (CG56972), native full-length …. The experiment in a line: FACS, UACC-62 cells, Ab 1 ug/mL.
Protocol: Cells were washed twice with PBS (Ca and Mg free), incubated with Versene at 37° C. until cells detached, counted and aliquoted at 1 million cells per assay tube. Cells were then washed twice and resuspended in ice-cold FACS buffer (0.01M HEPES, 0.15M NaCl, 0.1% NaN₃ and 4% FBS). Primary antibody at 1 μg/mL was added to the cells. Cells were incubated on ice for 30 min, washed 2-3 times and resuspended in 1 mL of ice-cold FACS buffer. R-PE-conjugated goat anti-human antibody (Jackson ImmunoResearch Laboratory) at 1:100 dilution was added and cells were incubated on ice for 30 min. After washing 3 times with 1 mL of ice-cold FACS buffer, cells were fixed with 0.5-1 mL of 1% formaldehyde in PBS and analyzed by flow cytometry.
Assay [3] concerns the target T2, CD3 on purified human T cells (human, UniProt P07766 23-207).
T2 construct: whole, on cells; also called CD3/TCR complex
The experiment in a line: flow cytometry on purified human T cells, mouse anti-FLAG mAb then PE goat anti-mouse Ig F(ab')2. Background: Flow cytometry measures light scatter and fluorescence of single cells or particles in a stream.
Description: (Jackson ImmunoResearch, West Grove, Pa.) Ten thousand events were collected and analyzed on a FACSCalibur instrument (Becton Dickinson, Mountain View, Calif.).
To verify binding of the bi-scFv to human CD3 molecules, we used purified human T cells.

Assay [4] addresses T1, GPNMB (CG56972), native full-length …. The experiment in a line: cell-based or functional assay. The source holds these as a separate data set.
The target is the same in assay [5]. The experiment in a line: cell-based or functional assay. The source holds these as a separate data set.
Assay [6] has the same target. The experiment in a line: cell-based or functional assay. The source holds these as a separate data set.
For assay [7] the target is unchanged. In words: cell-based or functional assay. This is another data set of the same source.
For assay [8] the target is unchanged. In words: cell-based or functional assay. The source holds these as a separate data set.

Several values for one entry are separate records, joined by “and”; a condition that tells them apart may be missing. Equal entries are not always repeated. A value given as a limit tells only on which side of the number the result lay.

T2 sequence (P07766 23-207): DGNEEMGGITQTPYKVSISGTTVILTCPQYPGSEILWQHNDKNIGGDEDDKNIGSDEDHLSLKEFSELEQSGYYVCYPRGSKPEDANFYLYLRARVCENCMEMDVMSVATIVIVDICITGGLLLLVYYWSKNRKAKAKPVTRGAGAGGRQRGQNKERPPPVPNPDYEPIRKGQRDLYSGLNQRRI

B1: Mab2.10.2 (antibody, human IgG2, V domains shown)
VH: QLVESGGGVVQPGRSLRLSCAASGFAFSSYGMHWVRQAPGKGLEWVAVISYDGNNKYYADSVKGRFTISRDNSKNTLYLQMNSLRAEDTAVYYCARDLVVRGIRGYYYYFGMDVWGQGTTVTVSS
VL: not shown
notes: Human IgG2 kappa from XenoMouse XMG2; also called CR011.2.10.2
For the molecule B1, in assay [1], the “killing of UACC-62 cells with saporin-conjugated secondary antibody, clonogenic, Ab 50 ng/mL” value (“killing of UACC-62 cells” for short) is over 70%. The “Geo Mean Ratio (relative to pK16)” value in assay [2] is 2.6.

B2: Mab1.2.2 (antibody, human IgG2, V domains shown)
VH: ITLKESGPTLVKPTQTLTLTCTFSGFSLSAGGVGVGWIRQPPGKALEWLALIYWNDDKRYSPSLRSRLTITKDTSKNQVVLTITNMDPVDTATYYCAHSHYDYDWGSYFDYWGQGTLVTVSS
VL: DIVMTQTPLSLPVTPGEPASISCRSSQSLLDSDDGNTYLDWYLQKPGQSPQLLIYTLSYRASGVPDRFSGSGSGTDFTLNISRVEAEDVGVYYCMQRIEFPITFGQGTRLEIKR
notes: Human IgG2 kappa from XenoMouse XMG2; also called CR011.1.2.2
For the molecule B2, the “Geo Mean Ratio (relative to pK16)” value in assay [2] came to 1.24.

B3: Mab2.22.1 (antibody, human IgG2, V domains shown)
VH: QVQLEQSGPGLVKPSQNLSLTCTVSGGSISSGGYFWSWIRQHPGKGLEWIGYIYYSGNTYYNPSLKSRVTISVDTSKNQFSLKLSSVTAADTAVYYCARDYYYDTSGFSYRYDWYYGMDVWGQGTTVTVSS
VL: DIQLTQSPSSLSASVGDRVTITCRASQGIRNDLGWYQQKPGKAPKRLIYAASSLQNGVPSRFSGSGSGTEFTLTISSLQPEDFATYYCLQHNTYPAFGQGTKVEIKR
notes: Human IgG2 kappa from XenoMouse XMG2; also called CR011.2.22.1
Turning to B3, in assay [1], the “killing of UACC-62 cells” value is over 70%. Also, the “Geo Mean Ratio (relative to pK16)” value in assay [2] is 4.46.

B4: CR011 scFv (VL-L4-VH) Flag (scFv)
scFv: EIVMTQSPATLSVSPGERATLSCRASQSVDNNLVWYQQKPGQAPRLLIYGASTRATGIPARFSGSGSGTEFTLTISSLQSEDFAVYYCQQYNNWPPWTFGQGTKVEIKLSADDAKKDAAKKDDAKKDDAKKDLQVQLQESGPGLVKPSQTLSLTCTVSGGSISSFNYYWSWIRHHPGKGLEWIGYIYYSGSTYSNPSLKSRVTISVDTSKNQFSLTLSSVTAADTAVYYCARGYNWNYFDYWGQGTLVTVSSASDYKDDDDK
notes: C-terminal Flag tag is within the entry; also called CR011 single chain antibody; CR011 scFv monomer
Consider B4, for which the binding result in assay [3] is on record as “no binding (tested: 5 µg/sample/100 µl)”.

B5: CR011-vcMMAE (Mab1.15.1 conjugated to monomethylauristatin E through a valine-citrulline linker) (other)
heavy: QVQLQESGPGLVKPSQTLSLTCTVSGGSISSFNYYWSWIRHHPGKGLEWIGYIYYSGSTYSNPSLKSRVTISVDTSKNQFSLTLSSVTAADTAVYYCARGYNWNYFDYWGQGTLVTVSSASTKGPSVFPLAPCSRSTSESTAALGCLVKDYFPEPVTVSWNSGALTSGVHTFPAVLQSSGLYSLSSVVTVPSSNFGTQTYTCNVDHKPSNTKVDKTVERKCCVECPPCPAPPVAGPSVFLFPPKPKDTLMISRTPEVTCVVVDVSHEDPEVQFNWYVDGVEVHNAKTKPREEQFNSTFRVVSVLTVVHQDWLNGKEYKCKVSNKGLPAPIEKTISKTKGQPREPQVYTLPPSREEMTKNQVSLTCLVKGFYPSDIAVEWESNGQPENNYKTTPPMLDSDGSFFLYSKLTVDKSRWQQGNVFSCSVMHEALHNHYTQKSLSLSPGK
VL: not shown
modifications: vcMMAE on cysteines of reduced disulfides, about 4 drugs per antibody (3.5-4.2); positions not given
Regarding B5, in assay [4], the “IC50, clonogenic assay with 1.15.1-AE, G361 cells” value is 1050 ng/mL and 6500 pM; the “IC50, clonogenic assay with 1.15.1-AE, RPMI-7951 cells” value is 972 ng/mL and 6000 pM; the “IC50, clonogenic assay with 1.15.1-AE, SK-Mel 2 cells” value was 111 ng/mL and 750 pM; the “IC50, clonogenic assay with 1.15.1-AE, SK-Mel 5 cells” value was 237 ng/mL and 1600 pM. Also, in assay [4], the “IC50, clonogenic assay with 1.15.1-AE, UACC-62 cells” value is 697 ng/mL and 4300 pM; the “IC50, clonogenic assay with 1.15.1-AE, UACC-257 cells” value was 825 ng/mL and 5500 pM; the “IC50, clonogenic assay with 1.15.1-AE, WM-266-4 cells” value is 345 ng/mL and 2300 pM. In addition, in assay [5], the “IC50, clonogenic assay with 1.15.1-AE, SR cells” value is 296 ng/mL and 2000 pM; the “IC50, clonogenic assay with 1.15.1-AE, THP-1 cells” value was 207 ng/mL and 1400 pM; the “IC50, clonogenic assay with 1.15.1-AE, U937 cells” value was 340 ng/mL and 2400 pM. In assay [6], the “CR011-AE IC50, clonogenic assay, SF-268 cells (poor expression)” value was over 1.5 µg/mL; the “CR011-AE IC50, clonogenic assay, SF-539 cells” value stood at 1.03 µg/mL; the “CR011-AE IC50, clonogenic assay, SK-MEL-2 cells” value is 0.303 µg/mL; the “CR011-AE IC50, clonogenic assay, SNB-78 cells” value was 0.449 µg/mL. Besides, in assay [6], the “CR011-AE IC50, clonogenic assay, U-118-MG cells” value came to 1.25 µg/mL and the “CR011-AE IC50, clonogenic assay, XF-498 cells” value was 0.216 µg/mL. Moreover, the “IC50 of colony formation (% of control), clonogenic assay after 96 h treatment of HEK293 cells transfected with GPNMB; the same conjugate on empty-vector cells prints >1000” value in assay [7] was determined as 0.3 µg/mL. Further, in assay [8], the “IC50 of colony formation (% of control), clonogenic assay, SK-Mel-2 cells with GPNMB knocked down by GPNMB siRNA” value worked out at 1 µg/mL; the “IC50 of colony formation (% of control), clonogenic assay, control-siRNA-transfected SK-Mel-2 cells” value is 0.22 µg/mL; the “IC50 of colony formation (% of control), clonogenic assay, mock-transfected SK-Mel-2 cells” value is 0.33 µg/mL.

B6: Mab1.15.1 (CR011), fully human IgG2 (antibody)
heavy: B5 heavy
VL: not shown
As for B6, in assay [1], the “killing of UACC-62 cells” value is over 70%.
